This assay concerns the target human HER2 (ErbB2) (human) (UniProt P04626). Briefly: cell-based or functional assay.

The substance “murine monoclonal antibody 4D5 (ATCC CRL 10463)” gave a maximum inhibition of cell proliferation in SK-BR-3 cells of 66%.

(Values after US20020001587A1.)
